This passage reports Kd results from patent US20180186877A1 (NATIONAL CEREBRAL AND CARDIOVASCULAR CENTER, published 2018).

For this assay, the target named is Epitope-tagged recombinant LOX-1 protein (NM002543, aa 61-273, 6xHis); pcDNA4, Igk secretion signal; secreted … (UniProt P78380 61-273). The assay can be described thus: SPR (Biacore), FVa immobilised on the chip, LOX-1 0-400 nM flowed; equilibrium (Req) analysis. On the procedure: Note that the Igκ secretion signal was obtained by pSecTag/FRT/V5-HisTOPO (Invitrogen). […] The surface plasmon resonance was performed using Biacore (manufactured by GE Healthcare, Inc.).

B1: Human Factor Va (HCVA-0110, Haematologic Technologies Inc.) (other)
H chain: AQLRQFYVAAQGISWSYRPEPTNSSLNLSVTSFKKIVYREYEPYFKKEKPQSTISGLLGPTLYAEVGDIIKVHFKNKADKPLSIHPQGIRYSKLSEGASYLDHTFPAEKMDDAVAPGREYTYEWSISEDSGPTHDDPPCLTHIYYSHENLIEDFNSGLIGPLLICKKGTLTEGGTQKTFDKQIVLLFAVFDESKSWSQSSSLMYTVNGYVNGTMPDITVCAHDHISWHLLGMSSGPELFSIHFNGQVLEQNHHKVSAITLVSATSTTANMTVGPEGKWIISSLTPKHLQAGMQAYIDIKNCPKKTRNLKKITREQRRHMKRWEYFIAAEEVIWDYAPVIPANMDKKYRSQHLDNFSNQIGKHYKKVMYTQYEDESFTKHTVNPNMKEDGILGPIIRAQVRDTLKIVFKNMASRPYSIYPHGVTFSPYEDEVNSSFTSGRNNTMIRAVQPGETYTYKWNILEFDEPTENDAQCLTRPYYSDVDIMRDIASGLIGLLLICKSRSLDRRGIQRAADIEQQAVFAVFDENKSWYLEDNINKFCENPDEVKRDDPKFYESNIMSTINGYVPESITTLGFCFDDTVQWHFCSVGTQNEILTIHFTGHSFIYGKRHEDTLTLFPMRGESVTVTMDNVGTWMLTSMNSSPRSKKLRLKFRDVKCIPDDDEDSYEIFEPPESTVMATRKMHDRLEPEDEESDADYDYQNRLAAALGIR
L chain: SNNGNRRNYYIAAEEISWDYSEFVQRETDIEDSDDIPEDTTYKKVVFRKYLDSTFTKRDPRGEYEEHLGILGPIIRAEVDDVIQVRFKNLASRPYSLHAHGLSYEKSSEGKTYEDDSPEWFKEDNAVQPNSSYTYVWHATERSGPESPGSACRAWAYYSAVNPEKDIHSGLIGPLLICQKGILHKDSNMPMDMREFVLLFMTFDEKKSWYYEKKSRSSWRLTSSEMKKSHEFHAINGMIYSLPGLKMYEQEWVRLHLLNIGGSQDIHVVHFHGQTLLENGNKQHQLGVWPLLPGSFKTLEMKASKPGWWLLNTEVGENQRAGMQTPFLIMDRDCRMPMGLSTGIISDSQIKASEFLGYWEPRLARLNNGGSYNAWSVEKLAAEFASKPWIQVDMQKEVIITGIQTQGAKHYLKSCYTTEFYVAYSSNQINWQIFKGNSTRNVMYFNGNSDASTIKENQFDPPIVARYIRISPTRAYNRPTLRLELQGCEVNGCSTPLGMENGKIENKQITASSFKKSWWGDYWEPFRARLNAQGRVNAWQAKANNNKQWLEIDLLKIKKITAIITQGCKSLSSEMYVKSYTIHYSEQGVEWKPYRLKSSMVDKIFEGNTNTKGHVKNFFNPPIISRFIRVIPKTWNQSIALRLELFGCDIY
modifications: Two-chain, plasma-derived glycoprotein. The H and L chains are held together non-covalently through Ca2+. Glycosylation and tyrosine sulfation are not carried by the letters.
notes: also called FVa
One may read the Kd as a measure of binding affinity in units of concentration. As to B1, the Kd is 22.1 nM.
